Measured values: patent US20200199204A1

What was measured:
Assay in all cases: cell-based or functional assay
[1] = target: HIV-1 Env of 0260.v5.c36 (HIV-1)
[2] = target: HIV-1 Env of 191821.E6.1 (HIV-1)
[3] = target: HIV-1 Env of 3016.V5.c36 (HIV-1)
[4] = target: HIV-1 Env of 6405.v4.c34 (HIV-1)
[5] = target: HIV-1 Env of 6535.3 (HIV-1)
[6] = target: HIV-1 Env of 96ZM651.02 (HIV-1)
[7] = target: HIV-1 Env of AC10.29 (HIV-1)
[8] = target: HIV-1 Env of BG505.w6m (HIV-1)
[9] = target: HIV-1 Env of C1080.c3 (HIV-1)
[10] = target: HIV-1 Env of CAAN.A2 (HIV-1)
[11] = target: HIV-1 Env of CAP210.E8 (HIV-1)
[12] = target: HIV-1 Env of CAP244.D3 (HIV-1)
[13] = target: HIV-1 Env of CAP256.PI (HIV-1)
[14] = target: HIV-1 Env of CAP256.SU (HIV-1)
[15] = target: HIV-1 Env of CAP45.G3 (HIV-1)
[16] = target: HIV-1 Env of CM244.ec1 (HIV-1)
[17] = target: HIV-1 Env of CNE3 (HIV-1)
[18] = target: HIV-1 Env of DU156.12 (HIV-1)
[19] = target: HIV-1 Env of DU172.17 (HIV-1)
[20] = target: HIV-1 Env of DU422.01 (HIV-1)
[21] = target: HIV-1 Env of KER2008.12 (HIV-1)
[22] = target: HIV-1 Env of KER2018.11 (HIV-1)
[23] = target: HIV-1 Env of MB201 (HIV-1)
[24] = target: HIV-1 Env of MB539.2B7 (HIV-1)
[25] = target: HIV-1 Env of PVO.04 (HIV-1)
[26] = target: HIV-1 Env of Q168.a2 (HIV-1)
[27] = target: HIV-1 Env of Q23.17 (HIV-1)
[28] = target: HIV-1 Env of Q259.d2.17 (HIV-1)
[29] = target: HIV-1 Env of Q461.e2 (HIV-1)
[30] = target: HIV-1 Env of Q769.d22 (HIV-1)
[31] = target: HIV-1 Env of Q842.d12 (HIV-1)
[32] = target: HIV-1 Env of QH0692.42 (HIV-1)
[33] = target: HIV-1 Env of REJO.67 (HIV-1)
[34] = target: HIV-1 Env of RHPA.7 (HIV-1)
[35] = target: HIV-1 Env of RW020.2 (HIV-1)
[36] = target: HIV-1 Env of SC422.8 (HIV-1)
[37] = target: HIV-1 Env of TH976.17 (HIV-1)
[38] = target: HIV-1 Env of THRO.18 (HIV-1)
[39] = target: HIV-1 Env of TRJO.58 (HIV-1)
[40] = target: HIV-1 Env of TRO.11 (HIV-1)
[41] = target: HIV-1 Env of UG037.8 (HIV-1)
[42] = target: HIV-1 Env of WITO.33 (HIV-1)
[43] = target: HIV-1 Env of ZM109.4 (HIV-1)
[44] = target: HIV-1 Env of ZM135.10a (HIV-1)
[45] = target: HIV-1 Env of ZM197.7 (HIV-1)
[46] = target: HIV-1 Env of ZM214.15 (HIV-1)
[47] = target: HIV-1 Env of ZM233.6 (HIV-1)
[48] = target: HIV-1 Env of ZM249.1 (HIV-1)
[49] = target: HIV-1 Env of ZM53.12 (HIV-1)

Substance: CAP256-VRC26.22 (antibody)
- IC50 [1]: > 50 µg/mL
- IC50 [2]: 2.12 µg/mL
- IC50 [3]: 0.022 µg/mL
- IC50 [4]: > 50 µg/mL
- IC50 [5]: > 50 µg/mL
- IC50 [6]: > 50 µg/mL
- IC50 [7]: > 50 µg/mL
- IC50 [8]: 0.035 µg/mL
- IC50 [9]: 0.013 µg/mL
- IC50 [10]: > 50 µg/mL
- IC50 [11]: 0.003 µg/mL
- IC50 [12]: > 50 µg/mL
- IC50 [13]: > 50 µg/mL
- IC50 [14]: 0.002 µg/mL
- IC50 [15]: 1.4 µg/mL
- IC50 [16]: 4.54 µg/mL
- IC50 (neutralization, TZM-bl) [17]: > 50 µg/mL
- IC50 [18]: 0.15 µg/mL
- IC50 [19]: > 50 µg/mL
- IC50 [20]: 0.012 µg/mL
- IC50 [21]: 1.23 µg/mL
- IC50 [22]: 0.002 µg/mL
- IC50 [23]: > 50 µg/mL
- IC50 [24]: 17.9 µg/mL
- IC50 [25]: 9.03 µg/mL
- IC50 [26]: 0.007 µg/mL
- IC50 [27]: 0.006 µg/mL
- IC50 [28]: 0.005 µg/mL
- IC50 [29]: 4.1 µg/mL
- IC50 [30]: > 50 µg/mL
- IC50 [31]: 0.63 µg/mL
- IC50 [32]: > 50 µg/mL
- IC50 [33]: > 50 µg/mL
- IC50 [34]: > 50 µg/mL
- IC50 [35]: > 50 µg/mL
- IC50 [36]: > 50 µg/mL
- IC50 (neutralization, TZM-bl) [37]: > 50 µg/mL
- IC50 [38]: > 50 µg/mL
- IC50 [39]: > 50 µg/mL
- IC50 [40]: > 50 µg/mL
- IC50 [41]: > 50 µg/mL
- IC50 [42]: > 50 µg/mL
- IC50 [43]: > 50 µg/mL
- IC50 [44]: > 50 µg/mL
- IC50 [45]: 0.09 µg/mL
- IC50 [46]: > 50 µg/mL
- IC50 [47]: 0.001 µg/mL
- IC50 [48]: 0.13 µg/mL
- IC50 [49]: 0.002 µg/mL

Substance: CAP256-VRC26.19 (antibody)
- IC50 [1]: > 50 µg/mL
- IC50 [2]: 29.2 µg/mL
- IC50 [3]: 0.039 µg/mL
- IC50 [4]: > 50 µg/mL
- IC50 [5]: > 50 µg/mL
- IC50 [6]: > 50 µg/mL
- IC50 [7]: 2.98 µg/mL
- IC50 [8]: 0.13 µg/mL
- IC50 [9]: 14.5 µg/mL
- IC50 [10]: > 50 µg/mL
- IC50 [11]: 0.025 µg/mL
- IC50 [12]: > 50 µg/mL
- IC50 [13]: > 50 µg/mL
- IC50 [14]: 0.015 µg/mL
- IC50 [15]: > 50 µg/mL
- IC50 [16]: 0.024 µg/mL
- IC50 (neutralization, TZM-bl) [17]: > 50 µg/mL
- IC50 [18]: 1.34 µg/mL
- IC50 [19]: > 50 µg/mL
- IC50 [20]: 0.057 µg/mL
- IC50 [21]: > 50 µg/mL
- IC50 [22]: 0.005 µg/mL
- IC50 [23]: > 50 µg/mL
- IC50 [24]: 0.431 µg/mL
- IC50 [25]: 1.1 µg/mL
- IC50 [26]: 7.04 µg/mL
- IC50 [27]: 0.233 µg/mL
- IC50 [28]: 2.16 µg/mL
- IC50 [29]: 15.6 µg/mL
- IC50 [30]: > 50 µg/mL
- IC50 [31]: 0.16 µg/mL
- IC50 [32]: > 50 µg/mL
- IC50 [33]: > 50 µg/mL
- IC50 [34]: > 50 µg/mL
- IC50 [35]: > 50 µg/mL
- IC50 [36]: > 50 µg/mL
- IC50 (neutralization, TZM-bl) [37]: > 50 µg/mL
- IC50 [38]: > 50 µg/mL
- IC50 [39]: > 50 µg/mL
- IC50 [40]: > 50 µg/mL
- IC50 [41]: > 50 µg/mL
- IC50 [42]: > 50 µg/mL
- IC50 [43]: 2.82 µg/mL
- IC50 [44]: > 50 µg/mL
- IC50 [45]: 0.135 µg/mL
- IC50 [46]: > 50 µg/mL
- IC50 [47]: 0.009 µg/mL
- IC50 [48]: 0.076 µg/mL
- IC50 [49]: 0.02 µg/mL
